Data reported in the Human Domainome abundance scans (Beltran et al. 2025).

B1: Transcriptional regulator ERG, residues 117 to 197; numbered along this chain, P11308 (parent)
chain: NMTTNERRVIVPADPTLWSTDHVRQWLEWAVKEYGLPDVNILLFQNIDGKELCKMTKDDFQRLTPSYNADILLSHLHYLRE

Variants of: B1
Test: abundance fitness (aPCA) (normalised: wild type 0, dead -1); higher = more abundant; growth selection in yeast, the domain comes from the species named
Details: Homo sapiens

Abundance fitness: each site, then its substitutions
D59: T 0.059 | S -0.155 | W -0.743 | G -0.204 | V -0.232 | R -0.154 | Y -0.666 | Q -0.04 | M -0.204 | A 0.068 | H -0.244 | N -0.24 | K -0.199 | F -0.538 | C 0.027 | L -0.765 | E -0.09
F60: S -0.536 | A -0.401 | T -0.902 | D -0.773 | E -1.18 | V -0.083 | W 0.017 | R -0.866 | Q -1.05 | L -0.093 | H -0.633 | M 0.13 | I 0.074 | C -0.306 | Y -0.365 | G -0.971
M55: R -0.65 | I -0.431 | N -0.37 | C -0.278 | D -0.745 | A -0.842 | G -0.807 | E -1.09 | L -0.023 | K -0.315 | S -1.14 | T -0.703 | W -0.091 | Q -0.924 | F -0.136
K50: W -0.05 | T 0.014 | L -0.054 | I -0.1 | P -0.011 | V -0.009 | R -0.032 | N 0.032 | Q -0.022
A69: P -0.124 | R -0.748 | V -0.039 | W -0.203 | S -0.352 | L -0.658 | G -0.124 | M -0.186 | T -0.219 | K -0.445 | Q -0.564
K57: S -0.024 | F -0.15 | I 0.18 | T -0.14 | E -0.023 | C -0.264 | Q -0.159 | M -0.165 | R -0.016 | N -0.234 | D -0.093 | P -0.028 | A 0.029 | V -0.127 | L -0.084
D70: H -0.011 | E 0.07 | K -0.097 | P -0.316 | G -0.05 | N -0.143 | A -0.169 | L -0.24 | M -0.237 | F -0.448
L52: M -0.324 | K -0.728 | C -0.928 | E -0.367 | W -0.809 | V -0.308 | F -0.327 | R -0.77 | T -1.11 | G -0.694 | I -0.126 | Q -0.946 | N -0.97 | P -0.886 | S -0.932 | H -0.689 | A -0.695 | Y -0.883
Q61: N -0.06 | M 0.096 | G -0.021 | K 0.044 | C -0.037 | H 0.173 | W -0.101 | E 0.056 | F -0.042 | D -0.037 | P -0.617 | T 0.105 | Y -0.058 | V -0.002 | I 0.193 | R -0.026 | S -0.032 | A 0.011
R62: I 0.03 | H -0.165 | C -0.072 | P -0.399 | Q 0.067 | D 0.02 | T -0.162 | E -0.073 | A 0.022 | K 0.017 | V -0.063 | M 0.097 | Y -0.138 | L -0.152 | S -0.095 | G -0.06 | N 0.015 | W -0.26 | F -0.112
T56: H -0.123 | I -0.236 | R -0.082 | M -0.282 | K 0.081 | F -0.502 | Q -0.108 | S 0.077 | L -0.265 | N -0.076 | A -0.118 | P -0.632 | D -0.01 | E -0.058 | Y -0.457 | G 0.042 | C -0.024 | V -0.066
K54: S 0.092
